# Test: soluble on expression in E. coli; label from the status in PepcDB or PDB records
row,Sequence,soluble on expression in E. coli
1,MAHHHHHHMRFLSSSAVSPSPIRPSTGGASGKERLHHELPILHWRAGGGGEVGGGQHDDADSSDEYNEAHLCCDDWASSPAEPAAAAATFQTRQSDTPDGLHVDSDDDDNADDDGGEDTAGQTWIEEALRRAEAKCAVLRLELTFATERAVAAEANARARERECAELHALASRMQAQLAAAQMTAEWATANTRADAEVQVAACTASLDDIAASAFSSPNSPNRLGTTSLSMRKGTALADGTVWRRRHDIVAQELATLKVSMAEQLAVLDRLGMQPPFSEELVCAAERRLRHVKVAHAPGTAMKASQPDATIPGTPHTLTRSTCVDSAASADLSAGGASVTATTKKIQVRNGNKIAALLNLRKQNRHQEKPAAAAADAMATGVTDSATTPSTSAPPVKRDGSEDCRTTLDAKENHYVV,not soluble
2,MGSDKIHHHHHHMTLTYFLDKETDTPIYKQLYESLRKDILSGKLKTGAKLPSIRHFAQTLNVSVITVQNAYHQLEAEGYITSRDRSGYYVENLAGLTLLERQDAKIIHAPHHDQASEDQIIDFSPSNIDNAQFPLSIWRKCVNETLLNHETRFNHHGAKLGELPLRAAVADYVTKSRILDCTEEQVVIFEGIEHSMNILSLLFKQMGKTAIMEQPSYKVIEDIFSLHQLPIQRVPSPKGVLSLEDLQEQKNGVLYLTPSHQYPYGSFLSIQERIKIINWAQNSESYVIEDDYDGEFRYDIDPVPSLQGLSKNHVIYIGTFSKTLSPAIRVSYAILPPELMKRYQEVCSMFPSPVSVHLQLALAKFMEDGHYERHIRRMRKYYKEKQDFLIATIQEVMGDHAALHGTTAGLHLVLELKNNSRPYKQLLAAARAHGVNIYPVKDVTPNPYFILGFSGLPREKITEGIRRLHKAWIE,not soluble
3,MPGWRSICAVMGLTFTGCVFIQGSARAQDGNKATAVLELYTSQGCKSCPPADKNFAKYADDPNVLALSFHVNYWDYMGWRDTLATQDNTDRQNSYRNAFHAKMIYTPQAIINGAVEANGRNGAAINAKIAANKLDVPVSIQQLNDGRLSIDIGAGKKPRDPVHVVLFYFRDSATIPITEGENAGKAITYRNTVSDIDTIGMWDGKPLKIELPASELKRKDVTGCAVVLQETRSDNSLGPMHGAAMFKQKRPVSFLEHHHHHH,not soluble
4,MGSDKIHHHHHHMKQLGLGLNLSTKKTRKREFLEDMERVVPWAVLVQIVAPHYPKAKTGRPPFGIETMLRIHYLQQWFGLSDPAMEEALHDVPLYREFAKLDSVTARLPDETTILRFRHLLERHNLAVDMLRVVNDLLQHKGLMMRTGTAVDATLISAPSSTKNAEGERDPEMKQTRKGNNWYFGMKAHIGVDAQSGLVHTVATTGANVNDLNMAGALLHGDEEAAFGDAGYQGVHKRPEAKGPTWHVAMRPGLRRKLNPFIEPDFIAERIEKMKASIRAKVEHPFRVIKRQFGFTKVRYRGLKKNTAQIVTLFALSNLWMARRQLIGARG,not soluble
5,MQKLIMGNWKMNGNSTSIKELCSGISQVQYDTSRVAIAVFPSSVYVKEVISQLPEKVGVGLQNITFYDDGAYTGEISARMLEDIGCDYLLIGHSERRSLFAESDEDVFKKLNKIIDTTITPVVCIGESLDDRQSGKLKQVLATQLSLILENLSVEQLAKVVIAYEPVWAIGTGVVASLEQIQETHQFIRSLLAKVDERLAKNIKIVYGGSLKAENAKDILSLPDVDGGLIGGASLKAAEFNEIINQANKICTE,not soluble
6,MSLEIRRADKDDLDDFVRVYVESYRGLEDYAYTRKRDVKNYFKWLLSRDKDGVMVAEIDGEAVGFVACDTNWFSIFERKKVGEIHELFVLPEFRGEGIGAKLMEKALEYALERNRKVAELWVGRTNYRARRFYASQDLRRPESGGSGSEEGHHHHHH,not soluble
7,SLKIFTSKKGQLSQLKQQKFKLEKDIQRLFEENLTLLSGYIFIRSEFSIKNSRIDTLAFDPETQAFVIIEYKRQQNSSVVDQGISYLNLMLEYKADFIVEYNEKQKVPLKRNDVDWSQSKVIFVSPAFNDFQIQATNFKDLPIELWEVNRFDNDIITLNIINKSKSAPNIKAVSNEKREEFSILKEIKVYQESDHLADKTDFIQELYEDFKQGILNLDPDIEINTRKLYIAFKKDRNIADIRIQQKNLKIWINLPYGELDDPKNLAKNVSNTGHWGNGDYEITIESTQYLEYIMSLIKQAIKD,soluble
8,MPWGWIEALLGHACPGCGGPLDLPALCGRCRAGLEAFSTGEMVYLGHYARVGPLVRALKYGRREALARALAEPLARAVAARGWRLQGVTAVPTLPHRLALRGYNPPEVLARALAKALGVPYRPVLFRRRYTPGQPTRGFKERRFLPGDLFGARVRVEGAWLLVDDVLTSGATFLRARGALLEAGAAHVYGAFLAVRDPRALGPYR,soluble
9,VVTLGYWDIRGLAHAIRLLLEYTETPYQERRYKAGPAPDFDPSDWTNEKEKLGLDFPNLPYLIDGDVKLTQSNAILRYIARKHNMCGETEVEKQRVDVLENHLMDLRMAFARLCYSPDFEKLKPAYLELLPGKLRQLSRFLGSRSWFVGDKLTFVDFLAYDVLDQQRMFVPDCPELQGNLSQFLQRFEALEKISAYMRSGRFMKAPIFWYTALWNNKKE,soluble
10,MSASGLLVEKSGPLSLIQDFGRFGLAHIGITQGGPVDDYAYSWANHLLGNRVNCSAIEITLGNACFIALQDCHLAICGGDLNASVDGHPIANWSDFSIKKGQKLQFGMAKNGLRAYLAVKGGFNVPEHLGSSSTVLREALGGLEANGNALKAGDVLPFDAHSLPNHKPRIMTFRFKPDYNLPITLRVIEGYQCDDFSVEAKEKFYSGSFAISPDSNRMGYRLEGNTVKPPYDGILSEGIALGAIQIPHDGNPIVLLNDHQTIGGYPKLGCVARIDLPRLAQAKPGQKVRFVKGDRQGLQDVWCQWAQFFGY,not soluble
11,AVVETAAMFDGTEGTLGRSMTLEDMELMTWAIFQSGQKIPAKVYSKILAQWDLYSYQMAVFHEAYDILLTPTVADVTPKHGQFALSESLQNQLKQIAYFDWPKQQELIWAMFADSLDWTSFTQRANLTGQPSISLPIYRNADGLSLGVQLTSAKGREDLLLLLAKQMEE,not soluble
12,MIPPLNRYVPALSKNELVKTVTNRDIQFTSFNGKDYPLCFLDEKTPLLFQWFERNPARFGKNDIPIINTEKNPYLNNIIKAATIEKERLIGIFVDGDFFPGQKDAFSKLEYDYENIKVIYRNDIDFSMYDKKLSEIYMENISKQESMPEEKRDCHLLQLLKKELSDIQEGNDSLIKSYLLDKGHGWFDFYRNMAMLKAGQLFLEADKVGCYDLSTNSGCIYLDADMIITEKLGGIYIPDGIAVHVERIDGRASMENGIIAVDRNNHPALLAGLEIMHTKFDADPYSDGVCNGIRKHFNYSLNEDYNSFCDFIEFKHDNIIMNTSQFTQSSWARHVQ,not soluble
13,MNIEQLSQSLEHMANQAATLDRQRGEHHVPLFDERLFSCRSRLLTPCVKEAKSTLDAIIREQNENKLTALRAEYLTERLVAQIGAIQREISTTKIRKNEIKHSSHFRKPINVLYQELAQHQEWARRLREMVLEKERAVETAPSFMRAEAQKVLLATEQRLARCEAALLKLENQITHREKHQ,soluble
14,MKTTKFNIENLDLFYGENQALKSINLPIPTRQVTALIGPSGCGKSTLLRCLNRMNDLIEGVTITGKLTMDGQDVYGNIDVSDLRIRVGMVFQKPNPFPMSIYENVAYGLRAQGIKDKKHLDEVVERSLRGAALWDEVKDRLKSHAFGLSGGQQQRLCIARTIAMEPDVILMDEPTSALDPIATHKIEELMEDLKKNYTIVIVTHSMQQARRISDRTAFFLMGELVEHDDTQVIFSNPRDDRTRGYVNGDFG,not soluble
15,MAHHHHHHMSVPKAALMQIFDLYDTDRAGWIPTKRIPYVLRTCGMISTQTEMETLLHDHFASRDTVTRSGFQKFLEQKDILKAEDFSSEKELATAFQVFDSRESGALTSDEVLTILTRMNEKIDVDAYHRVMDGLELNEQGMVEFAKLAAHMLRSANEYKLTVRQVLEELAE,soluble
16,MTETIKCIGCGVEIQTEDKNEVGYAPASSLEKEQVICQRCFRLKHYNEIQDVSLTDDDFLRILNGIGKSDALVVKIVDIFDFNGSWLPGLHRFVGNNKVLLVGNKADLIPKSVKHDKVKHWMRYSAKQLGLKPEDVFLISAAKGQGIAELADAIEYYRGGKDVYVVGCTNVGKSTFINRMIKEFSDETENVITTSHFPGTTLDLIDIPLDEESSLYDTPGIINHHQMAHYVGKQSLKLITPTKEIKPMVFQLNEEQTLFFSGLARFDYVSGGRRAFTCHFSNRLTIHRTKLEKADELYKNHAGDLLSPPTPEELENMPELVKYEFNIREPKTDVVFSGLGWVTVNEPGAKIVAHVPKGVSVSLRKSLI,soluble
17,INPPQHKQFQNLMPMQPRRYPEGKVLPDREREFPNTFPEHSSPLLLPKQELDMRWRGPHPLPGY,not soluble
18,MRLFECGTLVPGCAWHTRADDDAEVVRRTVDHMRSAHGETIIRENMIENIKSRIRDEANAA,not soluble
19,MENMLLWLIFFTPGWTLIDGSEMEWDFMWHLRKVPRIVSERTFHLTSPAFEADAKMMVNTVCGIECQKELPTPSLSELEDYLSYETVFENGTRTLTRVKVQDLVLEPTQNITTKGVSVRRKRQVYGTDSRFSILDKRFLTNFPFSTAVKLSTGCSGILISPQHVLTAAHCVHDGKDYVKGSKKLRVGLLKMRNKSGGKKRRGSKRSRREASGGDQREGTREHLQERAKGGRRRKKSGRGQRIAEGRPSFQWTRVKNTHIPKGWARGGMGDATLDYDYALLELKRAHKKKYMELGISPTIKKMPGGMIHFSGFDNDRADQLVYRFCSVSDESNDLLYQYCDAESGSTGSGVYLRLKDPDKKNWKRKIIAVYSGHQWVDVHGVQKDYNVAVRITPLKYAQICLWIHGNDANCAYG,not soluble
20,MAEAAQAPQQQFAIQRIYLKDVSFEAPSSPVMFQKEWNPDVKLDLDTQSRELGQGVYEVVLRLTVTVKNAEETAFLCEVQQAGIFSAEQMEAGQLAHCLGAFCPNILFPYARETISSLVVKGTFPQLNLAPVNFDALFMNYLQQQAQEGATANA,not soluble
21,GDQEPPLYVNENDIFTSPTRIEATLNGLYAAIKNTGTKSLMGGKSYLVFDNRGDDVINISNNLVTLFNTYNMNVGITDAENADTWTYAYLAINKVNTFLQSLEGAREVAGENYDRYVQEAKFVRALAYYYLNNLYPTPYSVNPDAKSVPLRLTAEAGTENNNMPRSTVKQIYEHILSDLENISALDTEVNTYTGVTHATQAAANMLKMRVYMAMNEWDKAITAGELVTGYSLPEDVTLIYKAPYFSQESIFSLPMADTNIPNTQQSLAEYYYDGKIMLIDTKSGIMSKPDYSLATDKRIIAFKGEKDLLMKFTDAKTKLQWVPIFRYAETLLDLAECYANKAGGEATAKSLLKQVRGRSVDAATDPLNIDNLSGDALKEAIYNEKRLEFIGEGIRGIDIMRRGEHFIKVGENETINVGPSDEKYTWPIPQVELLLNKDINK,soluble
22,MSLNYSNDIFEEDTFNPGNDNLFLKTASVGTGEYFILPRLCAHLAKNAPKFVLKISSLSEYLSLEYLLMSELDFAIGPGFVETGNNIIRELLFEEEAVCIMHKSHPLANQELTQDMYLQAEHVDIQFSYMGNENILYKALQGYHQRNIKVIVPNIISALEVVYHTNFITTVPRTLAVTFKDRYQIELHPFPFPKKTFLVNFYYHKRLSNHKPLQWVLDVIKKYCCVNHEGHHHHHH,not soluble

# Reference: the DeepSol protein solubility set
